Assay results reported in US20200270339A1 (CEPHALON, published 2020).
Numbering of substitutions follows the chain as printed. Values joined by “and” are separate entries in the source; they are usually repeats but may differ in a detail not shown here. Equal entries are not always repeated. Where two headings read alike, the source gives them in different places.

What was measured:
[1] = biological target: T1, human IL-15 complexed with the IL-15 Receptor-alpha (human, UniProt P40933 49-162); assay: SPR
T1 construct: Co-expressed in HEK293F from plasmids in a 1:1 ratio; also called IL-15/IL-15Rα complex
Target sequence in this assay (P40933 49-162 limits assumed, one chain of several): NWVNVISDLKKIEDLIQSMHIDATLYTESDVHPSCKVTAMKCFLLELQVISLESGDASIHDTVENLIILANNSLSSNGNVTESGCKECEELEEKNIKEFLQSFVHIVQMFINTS

[2] = biological target: T1, human IL-15 complexed with the IL-15 …; assay: cell-based or functional assay
Target sequence in this assay (P40933 49-162 limits assumed, one chain of several): as above

[3] = biological target: T2, uncomplexed IL-15 Receptor α (human); assay: SPR, antibody captured on Protein A chip
T2 construct: also called IL-15Rα; IL15Rα
T2 chain: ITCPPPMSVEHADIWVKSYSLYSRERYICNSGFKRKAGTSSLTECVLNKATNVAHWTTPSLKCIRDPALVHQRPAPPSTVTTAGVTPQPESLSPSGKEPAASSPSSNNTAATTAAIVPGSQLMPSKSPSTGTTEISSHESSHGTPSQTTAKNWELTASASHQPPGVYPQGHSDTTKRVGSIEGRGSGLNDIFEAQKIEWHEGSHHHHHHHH

[4] = biological target: IL-2 (UniProt P60568 21-153); assay: SPR, antibody captured on Protein A chip
Sequence of IL-2 (P60568 21-153 limits assumed): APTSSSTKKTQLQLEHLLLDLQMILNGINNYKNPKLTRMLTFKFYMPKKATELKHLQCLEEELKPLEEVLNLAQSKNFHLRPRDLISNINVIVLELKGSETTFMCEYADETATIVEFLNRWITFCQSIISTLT

[5] = biological target: T3, IL-4 (UniProt P05112 25-153); assay: SPR, antibody captured on Protein A chip
T3 sequence (looked up): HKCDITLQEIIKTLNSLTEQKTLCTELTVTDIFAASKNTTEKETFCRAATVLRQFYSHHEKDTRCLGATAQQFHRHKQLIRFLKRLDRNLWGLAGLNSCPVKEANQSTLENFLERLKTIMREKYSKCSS

[6] = biological target: T4, IL-7 (UniProt P13232 26-177); assay: SPR, antibody captured on Protein A chip
T4 sequence (looked up): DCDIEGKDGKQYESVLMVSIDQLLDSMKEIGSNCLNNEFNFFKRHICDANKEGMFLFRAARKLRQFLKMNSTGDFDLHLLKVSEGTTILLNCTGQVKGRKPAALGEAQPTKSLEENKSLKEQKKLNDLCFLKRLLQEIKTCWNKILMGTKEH

[7] = biological target: IL-9 (UniProt P15248 19-144); assay: SPR, antibody captured on Protein A chip
Sequence of IL-9 (P15248 19-144 limits assumed): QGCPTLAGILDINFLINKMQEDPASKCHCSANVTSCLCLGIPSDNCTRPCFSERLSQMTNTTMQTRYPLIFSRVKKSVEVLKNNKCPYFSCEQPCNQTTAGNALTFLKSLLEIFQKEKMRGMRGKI

[8] = biological target: IL-21 (UniProt Q9HBE4 30-162, limits assumed); assay: SPR, antibody captured on Protein A chip
Sequence of IL-21 (Q9HBE4 30-162 limits assumed): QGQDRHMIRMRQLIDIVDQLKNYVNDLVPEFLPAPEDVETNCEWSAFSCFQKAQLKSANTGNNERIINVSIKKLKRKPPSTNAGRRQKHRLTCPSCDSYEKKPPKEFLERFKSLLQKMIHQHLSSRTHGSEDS

[9] = biological target: T1, human IL-15 complexed with the IL-15 …; assay: cell-based or functional assay; remark: listed apart in the source
Target sequence in this assay (P40933 49-162 limits assumed, one chain of several): as the sequence (P40933 49-162 limits assumed, one chain of several) above

[10] = biological target: T1, human IL-15 complexed with the IL-15 …; assay: cell-based or functional assay; remark: listed apart in the source
Target sequence in this assay (P40933 49-162 limits assumed, one chain of several): as above

[11] = biological target: T1, human IL-15 complexed with the IL-15 …; assay: cell-based or functional assay; remark: listed apart in the source
Target sequence in this assay (P40933 49-162 limits assumed, chain 1 of 2, one chain of several): as the sequence (P40933 49-162 limits assumed, one chain of several) above

[12] = biological target: T1, human IL-15 complexed with the IL-15 …; assay: SPR; remark: listed apart in the source
Target sequence in this assay (P40933 49-162 limits assumed, one chain of several): as above

[13] = biological target: T1, human IL-15 complexed with the IL-15 …; assay: SPR; remark: listed apart in the source
Target sequence in this assay (P40933 49-162 limits assumed, one chain of several): as above

[14] = biological target: T1, human IL-15 complexed with the IL-15 …; assay: SPR; remark: listed apart in the source
[15] = biological target: T1, human IL-15 complexed with the IL-15 …; assay: SPR; remark: listed apart in the source
[16] = biological target: T1, human IL-15 complexed with the IL-15 …; assay: SPR; remark: listed apart in the source
[17] = biological target: T1, human IL-15 complexed with the IL-15 …; assay: SPR; remark: listed apart in the source
[18] = biological target: T1, human IL-15 complexed with the IL-15 …; assay: SPR; remark: listed apart in the source

B1: Antibody 70b (antibody, human IgG1, lambda)
heavy: QVQLQESGPGLVKPSGTLSLTCAVSGGSISSSNWWSWVRQPPGKGLEWIGEIYHYGYTNYNPSLKSRVTISVDKSKNQFSLKLSSVTAADTAVYYCAREGIGWPSFDYWGQGTLVTVSSASTKGPSVFPLAPSSKSTSGGTAALGCLVKDYFPEPVTVSWNSGALTSGVHTFPAVLQSSGLYSLSSVVTVPSSSLGTQTYICNVNHKPSNTKVDKKVEPKSCDKTHTCPPCPAPELLGGPSVFLFPPKPKDTLYITREPEVTCVVVDVSHEDPEVKFNWYVDGVEVHNAKTKPREEQYNSTYRVVSVLTVLHQDWLNGKEYKCKVSNKALPAPIEKTISKAKGQPREPQVYTLPPSRDELTKNQVSLTCLVKGFYPSDIAVEWESNGQPENNYKTTPPVLDSDGSFFLYSKLTVDKSRWQQGNVFSCSVMHEALHNHYTQKSLSLSPG
light: SSELTQDPAASVALGQTVRITCQGDTLRSYYASWYQQKPGQAPILVIYGKNNRPSGIPDRFSGSSSGNTASLTITGAQAEDEADYYCNSRDLSGKNLVFGGGTKLTVLGQPKAAPSVTLFPPSSEELQANKATLVCLISDFYPGAVTVAWKADSSPVKAGVETTTPSKQSNNKYAASSYLSLTPEQWKSHRSYSCQVTHEGSTVEKTVAPTECS
- Kd [1]: 0.154 nM and 0.157 nM
- koff [1]: 3.92e-05 s⁻¹ and 3.89e-05 s⁻¹
- kon [1]: 249000 M⁻¹ s⁻¹ and 254000 M⁻¹ s⁻¹
- Max IC50 (pM), NK-92 proliferation assay [2]: 16.6 pM
- Mean IC50 (pM), NK-92 proliferation assay [2]: 13.3 pM
- Min IC50 (pM), NK-92 proliferation assay [2]: 10.6 pM
- binding result [3]: no binding (tested: 10 µg/mL)
- binding result [4]: no binding (tested: 10 µg/mL)
- binding result [5]: no binding (tested: 10 µg/mL)
- binding result [6]: no binding (tested: 10 µg/mL)
- binding result [7]: no binding (tested: 10 µg/mL)
- binding result [8]: no binding (tested: 10 µg/mL)

B2: Antibody 70e (antibody, human IgG4 S228P, lambda)
heavy: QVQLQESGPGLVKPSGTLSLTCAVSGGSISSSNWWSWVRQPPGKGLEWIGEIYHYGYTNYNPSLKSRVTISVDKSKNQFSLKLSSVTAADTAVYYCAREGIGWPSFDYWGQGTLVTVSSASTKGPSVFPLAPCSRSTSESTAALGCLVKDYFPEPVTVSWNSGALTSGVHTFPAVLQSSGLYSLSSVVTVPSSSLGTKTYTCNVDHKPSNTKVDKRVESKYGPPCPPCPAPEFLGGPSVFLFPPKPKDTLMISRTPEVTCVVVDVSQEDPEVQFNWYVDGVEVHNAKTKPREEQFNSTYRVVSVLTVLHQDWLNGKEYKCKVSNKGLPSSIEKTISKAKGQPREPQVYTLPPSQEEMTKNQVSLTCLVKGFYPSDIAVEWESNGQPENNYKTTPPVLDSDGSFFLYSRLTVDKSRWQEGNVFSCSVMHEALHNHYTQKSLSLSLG
light: B1 light
- Kd [1]: 0.174 nM and 0.193 nM
- koff [1]: 4.31e-05 s⁻¹ and 4.58e-05 s⁻¹
- kon [1]: 237000 M⁻¹ s⁻¹ and 247000 M⁻¹ s⁻¹
- Max IC50 (pM), NK-92 proliferation assay [2]: 20.9 pM
- Mean IC50 (pM), NK-92 proliferation assay [2]: 15.7 pM
- Min IC50 (pM), NK-92 proliferation assay [2]: 11.7 pM
- binding result [3]: no binding (tested: 10 µg/mL)
- binding result [4]: no binding (tested: 10 µg/mL)
- binding result [5]: no binding (tested: 10 µg/mL)
- binding result [6]: no binding (tested: 10 µg/mL)
- binding result [7]: no binding (tested: 10 µg/mL)
- binding result [8]: no binding (tested: 10 µg/mL)

B3: Antibody 11 (antibody, V domains shown)
VH: QVQLQESGPGLVKPSGTLSLTCAVSGGSISSSNWWSWVRQPPGKGLEWIGEIYHYGYTNYNPSLKSRVTISVDKSKNQFSLKLISVTAADTAVYYCAREGIGWPSFDYWGQGTLVTVSS
VL: SSELTQDPAASVALGQTVRITCQGDTLRNYYASWYQQKPGQAPILVIYGKNNRPSGIPDRFSGSSSGNTASLTITGAQAEDEADYYCNSRDSSGKNLVFGGGTKLTVLG
- fold improvement of IC50 in the NK-92 cell proliferation assay compared to Antibody 4 [9]: ≥ 10 fold
- NK-92 cell proliferation assay, potency (IC50) [10]: 7.4 pM
- IC 50 (NK-92) in pM [11]: 6.3 pM

B4: VH_N058Q (antibody, V domains shown)
VH: B3 VH with Y55S, Y57N, N59Q
VL: SSELTQDPAASVALGQTVRITCQGDTLRNYYASWYQQKPGQAPILVIYGKNNRPSGIPDRFSGSSSGNTASLTITGAQAEDEADYYCNSRDSSGKNLVFGGGTKLTVL
- Kd [12]: 0.765 nM

B5: VL_K051A (antibody, V domains shown)
VH: B3 VH with Y55S, Y57N
VL: B4 VL with K50A
notes: Antibody 4 with one substitution; also called ANTIBODY 30
- Kd [13]: 0.942 nM

B6: VL_R054Y (antibody, V domains shown)
VH: B3 VH with Y55S, Y57N
VL: B4 VL with R53Y
notes: Antibody 4 with one substitution; also called ANTIBODY 35
- Kd [14]: 0.784 nM

B7: VL_K051L (antibody, V domains shown)
VH: B3 VH with Y55S, Y57N
VL: B4 VL with K50L
notes: Antibody 4 with one substitution; also called ANTIBODY 32
- Kd [13]: 0.865 nM

B8: VL_R054L (antibody, V domains shown)
VH: B3 VH with Y55S, Y57N
VL: B4 VL with R53L
notes: Antibody 4 with one substitution; also called ANTIBODY 33
- Kd [14]: 0.845 nM

B9: VL_D092S (antibody, V domains shown)
VH: B3 VH with Y55S, Y57N
VL: B4 VL with D91S
notes: Antibody 4 with one substitution; also called ANTIBODY 16
- Kd [15]: 2.15 nM

B10: VL_K051H (antibody, V domains shown)
VH: B3 VH with Y55S, Y57N
VL: B4 VL with K50H
notes: Antibody 4 with one substitution; also called ANTIBODY 31
- Kd [16]: 0.73 nM

B11: VH_T057D (antibody, V domains shown)
VH: B3 VH with Y55S, Y57N, T58D
VL: B4 VL
notes: Antibody 4 with one substitution; also called ANTIBODY 25
- Kd [12]: 0.64 nM

B12: VL_N030S (antibody, V domains shown)
VH: B3 VH with Y55S, Y57N
VL: B4 VL with N29S
notes: Antibody 4 with one substitution; also called ANTIBODY 51
- Kd [17]: 2.41 nM

B13: VL_G050S (antibody, V domains shown)
VH: B3 VH with Y55S, Y57N
VL: B4 VL with G49S
notes: Antibody 4 with one substitution; also called ANTIBODY 29
- Kd [18]: 1.58 nM

B14: VL_R054Q (antibody, V domains shown)
VH: B3 VH with Y55S, Y57N
VL: B4 VL with R53Q
notes: Antibody 4 with one substitution; also called ANTIBODY 34
- Kd [14]: 0.892 nM
